From paper PMC11672753

Molecular target: SARS-CoV-2 6P-mut7 spike protein (SARS-CoV-2) (UniProt P0DTC2)
Assay: cryo-EM structure

Substance: COVA2-15 Fab
- stoichiometry N (Fab per spike trimer): 3
